Experiment [1] addresses T1, Recombinant human LDLR (His-tagged) (Homo sapiens, UniProt P01130).
T1 construct: purchased Sino Biological (Beijing, China)
The experiment is described as follows: SPR affinity of MG04/VH-DO35, CH44, FG770, CH40 and FG769 for LDLR (Biacore T200). The settings on record: 25° C. The class given is binding. The procedure: (§1) Recombinant human LDLR (His-tagged) was purchased from Sino Biological (Beijing, China). Interaction of conjugates with LDLR was tested at 25° C. using a Biacore T200 (GE Healthcare) and 50 mM HEPES-NaOH pH7.4, 150 mM NaCl, 0.005% Tween-20, 50 μM EDTA as running buffer. hLDLR was immobilized on a NiHC sensor chip (Xantec, Dusseldorf, Germany) at a density of 35-60 fmol/mm^2. Binding of conjugates to LDLR-coated flow cells was corrected for non-specific binding to uncoated flow cells. The single-cycle kinetic method was used to measure the affinity of ligands with LDLR. Ligands were diluted in running buffer and injected sequentially 2 minutes at 30 μl/min using increasing concentrations. Blank run injections of running buffer were performed in the same conditions before ligand injection. Double-subtracted sensorgrams were globally fitted with the 1:1 Langmuir binding model from Biacore T200 Evaluation version 2.0.
(Surface plasmon resonance follows binding to a sensor surface in real time, without labels.)

In the next experiment the test system is CHO-hLDLR-GFP cells. The experiment is described as follows: Binding/endocytosis of fluorescent conjugates by LDLR expressing cells (confocal microscopy). The class given is cell-based, Chinese Hamster. The following applies: live cells, 1 hour at 37° C. From the text:
In these experiments, with regards to FIG. 2, the LDLR-GFP signal is visualized in column 2, the conjugate signal is either directly visualized in column 4 using the A680 fluorescence or in column 3 using an anti-hFc-A594 conjugated secondary antibody. Cell nuclei were stained in blue with Hoechst and its signal can be visualized in column 1. The co-labelling of LDLR-GFP and conjugates can be visualized as a highlight signal in column 5 on the merge image.

Experiment [2] concerns the target T1, Recombinant human LDLR (His-tagged). The experiment is described as follows: SPR affinity of conjugates A, B, C and D for LDLR (Biacore T200). The class given is binding. The following applies: 25° C. The procedure: as §1

Positions of bridges follow the written chain, without caps; N, C: chain ends. Non-standard residues stand in square brackets, D forms with d. Primed or numbered codes have the meaning given here. No end group written: not given here. *: point of attachment. DOTA = O=C(O)CN1CCN(CC(=O)O)CCN(CC(=O)*)CCN(CC(=O)O)CC1; NODAGA′ = not defined here; PEG12′ = not defined here; βAla = NCCC(=O)O

T1 sequence (P01130 22-860): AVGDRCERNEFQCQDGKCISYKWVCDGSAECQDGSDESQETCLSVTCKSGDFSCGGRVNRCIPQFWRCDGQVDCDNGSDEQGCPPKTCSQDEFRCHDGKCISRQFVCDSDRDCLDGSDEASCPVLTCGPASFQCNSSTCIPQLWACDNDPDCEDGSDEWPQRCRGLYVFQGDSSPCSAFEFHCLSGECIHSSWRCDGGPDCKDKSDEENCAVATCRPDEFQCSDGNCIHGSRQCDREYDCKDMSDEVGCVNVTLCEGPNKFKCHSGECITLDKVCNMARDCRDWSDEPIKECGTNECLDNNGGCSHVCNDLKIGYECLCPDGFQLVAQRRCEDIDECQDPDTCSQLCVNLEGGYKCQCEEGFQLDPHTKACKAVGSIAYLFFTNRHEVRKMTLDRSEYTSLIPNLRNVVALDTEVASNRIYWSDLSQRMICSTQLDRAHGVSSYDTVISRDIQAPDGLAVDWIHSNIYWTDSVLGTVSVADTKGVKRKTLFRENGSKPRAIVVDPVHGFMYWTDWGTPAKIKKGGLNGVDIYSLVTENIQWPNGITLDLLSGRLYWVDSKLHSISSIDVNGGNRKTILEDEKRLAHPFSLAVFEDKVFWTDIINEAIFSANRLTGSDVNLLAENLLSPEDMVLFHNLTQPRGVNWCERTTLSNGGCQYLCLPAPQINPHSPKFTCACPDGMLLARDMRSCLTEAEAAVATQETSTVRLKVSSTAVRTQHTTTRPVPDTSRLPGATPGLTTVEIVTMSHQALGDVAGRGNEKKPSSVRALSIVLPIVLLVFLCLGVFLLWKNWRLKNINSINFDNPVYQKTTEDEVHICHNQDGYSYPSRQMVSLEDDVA

Consider “NODAGA-βAla-PEG12-SEQ ID NO: 13-NH2 ({NODAGA′-βAla-PEG12′}-[dC]RPLGRMC-NH2; disulfide 1-8) [CH40, scrambled counterpart of CH44]”, for which the KD result in experiment [1] is “No Binding”.

As to “Fc-Peptide D-A680 (CRMLGRPC; cysteine pairing not given here; also: fused to a dimerising Fc or GST) [Conjugate D, control]”, the “binding to and endocytosis by CHO-hLDLR-GFP cells” value with CHO-hLDLR-GFP cells was “are not”. Besides, the KD result in experiment [2] was “No Binding”.

In the case of “DOTA-βAla-PEG12-SEQ ID NO: 13-NH2 ({DOTA-βAla-PEG12′}-[dC]RPLGRMC-NH2; disulfide 1-8) [FG769, scrambled counterpart of FG770]”, the KD result in experiment [1] is “No Binding”.

These data come from patent US12465660B2, “Compositions and methods for cancer imaging and radiotherapy” (VECT-HORUS, priority 2017, dated 2025).
